Experimental data as given in the Human Domainome abundance scans (Beltran et al. 2025).
± gives the uncertainty stated by the source.

B1: POU domain, class 3, transcription factor 2, residues 356 to 411; numbered along this chain, P20265 (parent)
chain: KKRTSIEVSVKGALESHFLKCPKPSAQEITSLADSLQLEKEVVRVWFCNRRQKEKR

Variants of: B1
Test: abundance fitness (aPCA) (normalised: wild type 0, dead -1); higher = more abundant; growth selection in yeast, the domain comes from the species named
Details: Homo sapiens

Which abundance fitness does the source give for KKRTSIEVSVKGALESHFLKCPKPSAQEITSLADSLQLEKEVVRKWFCNRRQKEKR [V45K] here?
Its abundance fitness is -0.057 ± 0.1.

For KKRTSIEVSVKGALESHFLKCPKPSAQEITSLADSLQLEKEVVRMWFCNRRQKEKR [V45M], which abundance fitness is on record?
The abundance fitness was -0.101 ± 0.18.

For KKRTSIEVSVKGALESHFLKCPKPSAQEITSLADSLQLEKEVVRWWFCNRRQKEKR [V45W], which abundance fitness is on record?
The abundance fitness was -0.038 ± 0.14.

Which abundance fitness does the source give for KKRTSIEVSVKGALESHFLKCPKPSAQEITSLADSLQLEKEVVRTWFCNRRQKEKR [V45T] here?
The abundance fitness was 0.001 ± 0.088.

Which abundance fitness does the source give for KKRTSIEVSVKGALESHFLKCPKPSAQEITSLADSLQLEKEVVRHWFCNRRQKEKR [V45H] here?
The abundance fitness was 0.089 ± 0.12.

For KKRTSIEVSVKGALESHFLKCPKPSAQEITSLADSLQLEKEVVRQWFCNRRQKEKR [V45Q], which abundance fitness is on record?
The abundance fitness was 0.061 ± 0.11.

Which abundance fitness does the source give for KKRTSIEVSVKGALESHFLKCPKPSAQEITSLADSLQLEKEVVRFWFCNRRQKEKR [V45F] here?
The abundance fitness was -0.175 ± 0.094.

For KKRTSIEVSVKGALESHFLKCPKPSAQEITSLADSLQLEKEVVRNWFCNRRQKEKR [V45N], which abundance fitness is on record?
The abundance fitness was -0.006 ± 0.11.

Which abundance fitness does the source give for KKRTSIEVSVKGALESHFLKCPKPSAQEITSLADSLQLEKEVVRYWFCNRRQKEKR [V45Y] here?
Its abundance fitness is -0.152 ± 0.11.

For KKRTSIEVSVKGALESHFLKCPKPSAQEITSLADSLQLEKEVVRIWFCNRRQKEKR [V45I], which abundance fitness is on record?
The abundance fitness was 0.01 ± 0.12.

For KKRTSIEVSVKGALESHFLKCPKPSAQEITSLADSLQLEKEVVRGWFCNRRQKEKR [V45G], which abundance fitness is on record?
Its abundance fitness is -0.048 ± 0.092.

For KKRTSIEVSVKGALESHFLKCPKPSAQEITSLADSLQLEKEVVDVWFCNRRQKEKR [R44D], which abundance fitness is on record?
The abundance fitness was 0.008 ± 0.11.

With KKRTSIEVSVKGALESHFLKCPKPSAQEITSLADSLQLEKEVVNVWFCNRRQKEKR [R44N] as the variant, how does the abundance fitness read?
Its abundance fitness is -0.152 ± 0.11.

For KKRTSIEVSVKGALESHFLKCPKPSAQEITSLADSLQLEKEVVLVWFCNRRQKEKR [R44L], which abundance fitness is on record?
Its abundance fitness is -0.407 ± 0.068.

With KKRTSIEVSVKGALESHFLKCPKPSAQEITSLADSLQLEKEVVYVWFCNRRQKEKR [R44Y] as the variant, how does the abundance fitness read?
The abundance fitness was -0.416 ± 0.12.

Which abundance fitness does the source give for KKRTSIEVSVKGALESHFLKCPKPSAQEITSLADSLQLEKEVVVVWFCNRRQKEKR [R44V] here?
Its abundance fitness is -0.38 ± 0.076.

For KKRTSIEVSVKGALESHFLKCPKPSAQEITSLADSLQLEKEVVHVWFCNRRQKEKR [R44H], which abundance fitness is on record?
Its abundance fitness is -0.127 ± 0.11.

For KKRTSIEVSVKGALESHFLKCPKPSAQEITSLADSLQLEKEVVCVWFCNRRQKEKR [R44C], which abundance fitness is on record?
Its abundance fitness is -0.495 ± 0.1.

For KKRTSIEVSVKGALESHFLKCPKPSAQEITSLADSLQLEKEVVWVWFCNRRQKEKR [R44W], which abundance fitness is on record?
The abundance fitness was -0.412 ± 0.14.

For KKRTSIEVSVKGALESHFLKCPKPSAQEITSLADSLQLEKEVVSVWFCNRRQKEKR [R44S], which abundance fitness is on record?
Its abundance fitness is -0.09 ± 0.07.

With KKRTSIEVSVKGALESHFLKCPKPSAQEITSLADSLQLEKEVVQVWFCNRRQKEKR [R44Q] as the variant, how does the abundance fitness read?
Its abundance fitness is -0.057 ± 0.1.

For KKRTSIEVSVKGALESHFLKCPKPSAQEITSLADSLQLEKEVVGVWFCNRRQKEKR [R44G], which abundance fitness is on record?
Its abundance fitness is -0.188 ± 0.1.

For KKRTSIEVSVKGALESHFLKCPKPSAQEITSLADSLQLEKEVVEVWFCNRRQKEKR [R44E], which abundance fitness is on record?
The abundance fitness was 0.027 ± 0.12.

Which abundance fitness does the source give for KKRTSIEVSVKGALESHFLKCPKPSAQEITSLADSLQLEKEVVMVWFCNRRQKEKR [R44M] here?
Its abundance fitness is -0.214 ± 0.11.

With KKRTSIEVSVKGALESHFLKCPKPSAQEITSLADSLQLEKEVVAVWFCNRRQKEKR [R44A] as the variant, how does the abundance fitness read?
Its abundance fitness is -0.027 ± 0.083.

Which abundance fitness does the source give for KKRTSIEVSVKGALESHFLKCPKPSAQEITSLADSLQLEKEVVTVWFCNRRQKEKR [R44T] here?
The abundance fitness was -0.08 ± 0.11.

Which abundance fitness does the source give for KKRTSIEVSVKGALESHFLKCPKPSAQEITSLADSLQLEKEVVIVWFCNRRQKEKR [R44I] here?
Its abundance fitness is -0.272 ± 0.11.

Which abundance fitness does the source give for KKRTSIEVSVKGALESHFLKCPKPSAQEITSLADSLQLEKEVVFVWFCNRRQKEKR [R44F] here?
The abundance fitness was -0.481 ± 0.089.

For KKRTSIEVSVKGALESHFLKCPKPSAQEITSLADSLQLEKEVVPVWFCNRRQKEKR [R44P], which abundance fitness is on record?
The abundance fitness was -0.814 ± 0.12.

With KKRTSIEVSVKGALESHFLKCPKPSAQEITSLADSLQLEKEVQRVWFCNRRQKEKR [V43Q] as the variant, how does the abundance fitness read?
Its abundance fitness is -0.877 ± 0.19.

Which abundance fitness does the source give for KKRTSIEVSVKGALESHFLKCPKPSAQEITSLADSLQLEKEVCRVWFCNRRQKEKR [V43C] here?
The abundance fitness was -0.547 ± 0.15.

With KKRTSIEVSVKGALESHFLKCPKPSAQEITSLADSLQLEKEVRRVWFCNRRQKEKR [V43R] as the variant, how does the abundance fitness read?
Its abundance fitness is -0.95 ± 0.11.

With KKRTSIEVSVKGALESHFLKCPKPSAQEITSLADSLQLEKEVNRVWFCNRRQKEKR [V43N] as the variant, how does the abundance fitness read?
The abundance fitness was -0.889 ± 0.34.

For KKRTSIEVSVKGALESHFLKCPKPSAQEITSLADSLQLEKEVLRVWFCNRRQKEKR [V43L], which abundance fitness is on record?
Its abundance fitness is -0.361 ± 0.068.

With KKRTSIEVSVKGALESHFLKCPKPSAQEITSLADSLQLEKEVTRVWFCNRRQKEKR [V43T] as the variant, how does the abundance fitness read?
The abundance fitness was -0.841 ± 0.12.

For KKRTSIEVSVKGALESHFLKCPKPSAQEITSLADSLQLEKEVARVWFCNRRQKEKR [V43A], which abundance fitness is on record?
The abundance fitness was -0.615 ± 0.089.

With KKRTSIEVSVKGALESHFLKCPKPSAQEITSLADSLQLEKEVYRVWFCNRRQKEKR [V43Y] as the variant, how does the abundance fitness read?
Its abundance fitness is -0.955 ± 0.2.

With KKRTSIEVSVKGALESHFLKCPKPSAQEITSLADSLQLEKEVDRVWFCNRRQKEKR [V43D] as the variant, how does the abundance fitness read?
Its abundance fitness is -0.958 ± 0.19.

For KKRTSIEVSVKGALESHFLKCPKPSAQEITSLADSLQLEKEVPRVWFCNRRQKEKR [V43P], which abundance fitness is on record?
The abundance fitness was -0.891 ± 0.17.

For KKRTSIEVSVKGALESHFLKCPKPSAQEITSLADSLQLEKEVERVWFCNRRQKEKR [V43E], which abundance fitness is on record?
The abundance fitness was -1.01 ± 0.17.

For KKRTSIEVSVKGALESHFLKCPKPSAQEITSLADSLQLEKEVMRVWFCNRRQKEKR [V43M], which abundance fitness is on record?
The abundance fitness was -0.944 ± 0.16.

With KKRTSIEVSVKGALESHFLKCPKPSAQEITSLADSLQLEKEVSRVWFCNRRQKEKR [V43S] as the variant, how does the abundance fitness read?
Its abundance fitness is -0.985 ± 0.14.

For KKRTSIEVSVKGALESHFLKCPKPSAQEITSLADSLQLEKEVHRVWFCNRRQKEKR [V43H], which abundance fitness is on record?
Its abundance fitness is -0.938 ± 0.2.

For KKRTSIEVSVKGALESHFLKCPKPSAQEITSLADSLQLEKEVIRVWFCNRRQKEKR [V43I], which abundance fitness is on record?
Its abundance fitness is -0.197 ± 0.12.

With KKRTSIEVSVKGALESHFLKCPKPSAQEITSLADSLQLEKEVKRVWFCNRRQKEKR [V43K] as the variant, how does the abundance fitness read?
The abundance fitness was -0.909 ± 0.3.

Which abundance fitness does the source give for KKRTSIEVSVKGALESHFLKCPKPSAQEITSLADSLQLEKEVGRVWFCNRRQKEKR [V43G] here?
The abundance fitness was -0.906 ± 0.12.

Which abundance fitness does the source give for KKRTSIEVSVKGALESHFLKCPKPSAQEITSLADSLQLEKEVWRVWFCNRRQKEKR [V43W] here?
Its abundance fitness is -0.793 ± 0.16.
